Results from FireProtDB (doi:10.1021/bi9910169).

B1: Lysozyme C, P61626 (parent)
chain: MKALIVLGLVLLSVTVQGKVFERCELARTLKRLGMDGYRGISLANWMCLAKWESGYNTRATNYNAGDRSTDYGIFQINSRYWCNDGKTPGAVNACHLSCSALLQDNIADAVACAKRVVRDPQGIRAWVAWRNRCQNRDVRQYVQGCGV

Variants of: B1
Conditions: Homo sapiens; pH 2.5; Thermal; DSC; glycine-HCl 0.05 M; reversible: yes; structure 1LZ1; whole UniProt chain shown

Row | Variant | Tm [°C] | unfolding enthalpy (calorimetric) [kcal/mol] | unfolding enthalpy (van 't Hoff) [kcal/mol]
1 | T58A | 56.6 | 97.5 | 103
2 | T70V | 58.8 | 98.7 | 104
3 | T58V | 57 | 96.6 | 104
4 | T88A | 57.3 | 98.5 | 99.9
5 | T88V | 59.5 | 102 | 106

Same assay, conditions: Homo sapiens; pH 2.7; Thermal; DSC; glycine-HCl 0.05 M; reversible: yes; structure 1LZ1; whole UniProt chain shown

Row | Variant | Tm [°C] | unfolding enthalpy (calorimetric) [kcal/mol] | unfolding enthalpy (van 't Hoff) [kcal/mol]
6 | T58A | 59.4 | 99.9 | 102
7 | T70V | 62.1 | 102 | 107
8 | T58V | 59.2 | 93 | 99.9
9 | T88A | 60 | 101 | 104
10 | T88V | 62.6 | 107 | 111
11 | T70A | 61.9 | 103 | 109

Same assay, conditions: Homo sapiens; pH 2.85; Thermal; DSC; glycine-HCl 0.05 M; reversible: yes; structure 1LZ1; whole UniProt chain shown

Row | Variant | Tm [°C] | unfolding enthalpy (calorimetric) [kcal/mol] | unfolding enthalpy (van 't Hoff) [kcal/mol]
12 | T58A | 63.3 | 107 | 114
13 | T70V | 64.2 | 105 | 110
14 | T58V | 63.2 | 110 | 113
15 | T88A | 62.2 | 103 | 106
16 | T88V | 65.3 | 112 | 117
17 | T70A | 64.4 | 105 | 112

Same assay, conditions: Homo sapiens; pH 3; Thermal; DSC; glycine-HCl 0.05 M; reversible: yes; structure 1LZ1; whole UniProt chain shown

Row | Variant | Tm [°C] | unfolding enthalpy (calorimetric) [kcal/mol] | unfolding enthalpy (van 't Hoff) [kcal/mol]
18 | T58A | 66.5 | 114 | 117
19 | T70V | 66.6 | 107 | 113
20 | T58V | 66.3 | 112 | 119
21 | T88A | 64.7 | 107 | 110
22 | T88V | 67.6 | 115 | 121
23 | T70A | 66.9 | 108 | 114

Same assay, conditions: Homo sapiens; pH 3.1; Thermal; DSC; glycine-HCl 0.05 M; reversible: yes; structure 1LZ1; whole UniProt chain shown

Row | Variant | Tm [°C] | unfolding enthalpy (calorimetric) [kcal/mol] | unfolding enthalpy (van 't Hoff) [kcal/mol]
24 | T58A | 68.6 | 117 | 121
25 | T70V | 68.7 | 111 | 114
26 | T58V | 68.7 | 115 | 123
27 | T88A | 67.1 | 110 | 113
28 | T88V | 70.3 | 119 | 123
29 | T70A | 68.9 | 109 | 118

Same assay, conditions: Homo sapiens; pH 2.51; Thermal; DSC; glycine-HCl 0.05 M; reversible: yes; structure 1LZ1; whole UniProt chain shown

Row | Variant | Tm [°C] | unfolding enthalpy (calorimetric) [kcal/mol] | unfolding enthalpy (van 't Hoff) [kcal/mol]
30 | T29V | 62.9 | 104 | 107
31 | T61V | 65 | 99.9 | 112

Same assay, conditions: Homo sapiens; pH 2.71; Thermal; DSC; glycine-HCl 0.05 M; reversible: yes; structure 1LZ1; whole UniProt chain shown

Row | Variant | Tm [°C] | unfolding enthalpy (calorimetric) [kcal/mol] | unfolding enthalpy (van 't Hoff) [kcal/mol]
32 | T29V | 66.2 | 110 | 112
33 | T61V | 68.4 | 105 | 114

Same assay, conditions: Homo sapiens; pH 2.81; Thermal; DSC; glycine-HCl 0.05 M; reversible: yes; structure 1LZ1; whole UniProt chain shown

Row | Variant | Tm [°C] | unfolding enthalpy (calorimetric) [kcal/mol] | unfolding enthalpy (van 't Hoff) [kcal/mol]
34 | T29V | 68.7 | 114 | 117

Same assay, conditions: Homo sapiens; pH 3.19; Thermal; DSC; glycine-HCl 0.05 M; reversible: yes; structure 1LZ1; whole UniProt chain shown

Row | Variant | Tm [°C] | unfolding enthalpy (calorimetric) [kcal/mol] | unfolding enthalpy (van 't Hoff) [kcal/mol]
35 | T29V | 73 | 117 | 121

Same assay, conditions: Homo sapiens; pH 3.02; Thermal; DSC; glycine-HCl 0.05 M; reversible: yes; structure 1LZ1; whole UniProt chain shown

Row | Variant | Tm [°C] | unfolding enthalpy (calorimetric) [kcal/mol] | unfolding enthalpy (van 't Hoff) [kcal/mol]
36 | T61V | 73 | 108 | 118
37 | T29A | 71.4 | 116 | 119

Same assay, conditions: Homo sapiens; pH 3.2; Thermal; DSC; glycine-HCl 0.05 M; reversible: yes; structure 1LZ1; whole UniProt chain shown

Row | Variant | Tm [°C] | unfolding enthalpy (calorimetric) [kcal/mol] | unfolding enthalpy (van 't Hoff) [kcal/mol]
38 | T61V | 75.4 | 113 | 121

Same assay, conditions: Homo sapiens; pH 2.54; Thermal; DSC; glycine-HCl 0.05 M; reversible: yes; structure 1LZ1; whole UniProt chain shown

Row | Variant | Tm [°C] | unfolding enthalpy (calorimetric) [kcal/mol] | unfolding enthalpy (van 't Hoff) [kcal/mol]
39 | T61A | 61.1 | 104 | 105

Same assay, conditions: Homo sapiens; pH 2.74; Thermal; DSC; glycine-HCl 0.05 M; reversible: yes; structure 1LZ1; whole UniProt chain shown

Row | Variant | Tm [°C] | unfolding enthalpy (calorimetric) [kcal/mol] | unfolding enthalpy (van 't Hoff) [kcal/mol]
40 | T61A | 64.5 | 108 | 109
41 | T29A | 66.8 | 112 | 115

Same assay, conditions: Homo sapiens; pH 2.9; Thermal; DSC; glycine-HCl 0.05 M; reversible: yes; structure 1LZ1; whole UniProt chain shown

Row | Variant | Tm [°C] | unfolding enthalpy (calorimetric) [kcal/mol] | unfolding enthalpy (van 't Hoff) [kcal/mol]
42 | T61A | 67.1 | 111 | 112

Same assay, conditions: Homo sapiens; pH 2.82; Thermal; DSC; glycine-HCl 0.05 M; reversible: yes; structure 1LZ1; whole UniProt chain shown

Row | Variant | Tm [°C] | unfolding enthalpy (calorimetric) [kcal/mol] | unfolding enthalpy (van 't Hoff) [kcal/mol]
43 | T29A | 68.5 | 115 | 116

Same assay, conditions: Homo sapiens; pH 3.22; Thermal; DSC; glycine-HCl 0.05 M; reversible: yes; structure 1LZ1; whole UniProt chain shown

Row | Variant | Tm [°C] | unfolding enthalpy (calorimetric) [kcal/mol] | unfolding enthalpy (van 't Hoff) [kcal/mol]
44 | T29A | 73.4 | 119 | 120
